Reference: a protein production outcome set (Wang et al. 2014)

Assay: label from the status in PepcDB records
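Further: failed if final PepcDB status was selected cloned or expressed and not failed if soluble or beyond.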

| Sequence | protein production |
| --- | --- |
| MASILRWFVRAFALALAAQSVCANPRPEVIDTIAATPAGLVAVTEDGTGLWSLVDGSRPAWQARPRAPNARGDMQLEPVAVSPDGRWLAATRGYKDPVIVVRDAATGRAVREIKAPRSGVDGLRFAGDDVLVALYAGRLAAVWEASSGKARGVFELPAAPRQVAASADGRYLAVGQDKQRVTVYDLEGGKSLGNFELGSIASKSHAVPTHDILFMAFAYDGTVVVHHATGYIQRFDPRRAAPAALLGSQDIPLRGVATSLSPDRRVLLTADRPGALTLYRLDQPAPARSALRSALGEVTASAWEAGSRRFAVADNQGRVELWDARKPAGAALEGKHAGAIEQLAFASAGRFLVSSGRDGSIRVRETATGQEAVRLVGLGETGWVSMMPAGYFHSSGLPAEAAINVRIGSDVYGIDNFRERYYRPDILSAALQGRSVRPQRTLADTRPPPQVRADPVPASLAADTYTLVLQLTDQGGGIGDVRVLRNDVAVANHAADAQAAAGSQRRSIPVKLAAGRNEIKVIAFNAENSLSSKPLRLTLDVRATQPEKPVLHAMIVGINEFGEASLNLQYAVNDANAIARELRERTRGLYRDVRIELLTTPQQTSRASLIESLRRYQQLDAGDVFMFYVSTHGAVMGDKPVDQEYFLIPSNAKSPVFAHDAISQHELKRLFSSIPAGKKLLLFDTCFAGALGEALYQPAVERGVAENGAVNVLATAIGSTTLAASAPLEMSYEGYQEHGTFTWVVLQAFRGKAGGGKGNVVLTADLARYVAREVPALARRLQREQNPAVYATGQPFPVVAGR | failed |
| MASKKKPIDSRVDYSLILPVFFLVLIGLFSVYTATIHDYPSKIMVVMGQQLIWLIMGAAISFVVMLFSTEFLWKITPYLYGLGLILMIFPLIFYSPELVASTGAKNWVSIGSVTLFQPSEFMKISYILILARLTVTFKQKYKEKNLQEDGKLLLWFALLTLPIMILLALQKDLGTAMVFMAILAGLVLIAGISWQIILPVVGAVALIVALFMVVFLIPGGKEFLYHHMGVDTYQINRLSAWLNPFDYAGSIAYQQTQGMISIGSGGLFGKGFNIVELPVPVRESDMIFTVIAENFGFIGGSIVLALYLILIYRMLRVTFASNNLFYTYISTGFIMMILFHIFENIGAAVGILPLTGIPLPFISQGGSSLISNLIGVGLVLSMSYQNSLNQEKATERYFAHIKKESLTS | failed |
| MASKSVHADITLLLDMEGVIREATLSPTMAAESVDGWLGRRWSDIAGAEGGDKVRRMVEDARRSGISAFRQINQPFPSGVEIPIEFTTMLLGDRTGMIAVGKNMQAVTELHSRLIAAQQAMERDYWRLRELETRYRLVFDAAADAVMIVSAGDMRIVEANRAAVNAISRVERGNDDLAGRDFLAEVAAADRDAVRDMLAQVRQRGTALSVLVHLGRYDRAWMLRGSLMSSERRQVFLLHFTPVTTTPAIDDVDDDAVLRGLIDRIPDGFVALDSEGVVRHANQAFLDLVQIGSKPAAVGRSLGVWMGRPGADLSSLLTLLRRYKTVRLFQTTIRGELGTETEVEVSAVDGEDDQYIGVLMRNVARRLDAADDHDALRQALGPISKQLGRSSLRKLVKNAVSIVEQHYVKEALLRSKGNRTATAELLGLSRQSLYAKLNCYGFDDKGVVASAADGAEGASDDAED | failed |
| MASLCSARFLPSPSLDILSTKTKISSDSRSLGCSSSRVFAFSSVHRSSSRRNRNQLQVVSMAPEEEKLTRRNPLDFPIEWERPKPGRRPDIFPKFSPMKTPLPPPMPYDPPEEDEEEEEKKEEEEENPDQEEEEQPEKQQ | failed |
| MASLQLCDGYLLFKPSVSPRFLSQRISHRLIPKASSSPPPSPSPSSSSSSLSFSRRELLYQSAAVSLSLSSIVGPARADEQLSEWERVFLPIDPGVVLLDIAFVPDEPSRGFLLGTRQTLLETKDGGSTWNPRSIPSAEEEDFNYRFNSISFKGKEGWIIGKPAILLYTADAGENWDRIPLSSQLPGDMVFIKATEDKSAEMVTDEGAIYVTSNRGYNWKAAIQETVSATLNRTVSSGISGASYYTGTFSAVNRSPDGRYVAVSSRGNFFLTWEPGQPYWQPHNRAVARRIQNMGWRADGGLWLLVRGGGLYLSKGTGITEEFEEVPVQSRGFGILDVGYRSEEEAWAAGGSGILLRTRNGGKSWNRDKAADNIAANLYAVKFVDDKKGFVLGNDGVLLRYVG | failed |
| MASLRLPAQLVTRGNLIHHNSSSSSSGRLSWRRSLTPENTIPLFPSSSSSSLNRERSIVVPVTCSAAAVNLAPGTPVRPTSILVVGATGTLGRQIVRRALDEGYDVRCLVRPRPAPADFLRDWGATVVNADLSKPETIPATLVGIHTVIDCATGRPEEPIKTVDWEGKVALIQCAKAMGIQKYVFYSIHNCDKHPEVPLMEIKYCTEKFLQESGLNHITIRLCGFMQGLIGQYAVPILEEKSVWGTDAPTRVAYMDTQDIARLTLIALRNEKINGKLLTFAGPRAWTTQEVITLCERLAGQDANVTTVPVSVLRVTRQLTRFFQWTNDVADRLAFSEVLSSDTVFSAPMTETNSLLGVDQKDMVTLEKYLQDYFSNILKKLKDLKAQSKQSDIYF | failed |
| MASNEAGRALPKFGEWDVNDPATADGFTVIFSKAGEDKKTGRSSTKTNSQRKQDGDKPAVKKWLCFTFA | not failed |
| MASNIILFEDIFVVDQLDPDGKKFDKVTRVQATSHNLEMFMHLDVNTEVYPLAVGDKFTLALAPTLNLDGTPDTGYFTPGAKKTLADKYEYIMHGKLYKISERDGKTPKAELYVSFGGLLMLLKGDPAHISHFELDQRLFLLMRKL | failed |
| MASPDGSGSESFRTRRRRNRARFALAAVLTFILVAVGVLALVFYELRPVSLKIAVGPGGGDDLKLVQALAQSFARDRAAVRLVPLVTGGATPSIEAFRDHKADLAVTRADLDLPADAQAVAVLRKNVVVLWAPSSAGKGKKSIKTITDLAGRRVGVIGRTPANVKLFDIILAESGVAPDKVQKEQFATGQLAEMARDPSLDAFLAVGPLDSKITGEAIAATAKARGEPRFLPVDVGDAIAKKYPIYDSEEIPGSIFSTQPARPEDKVDTVSVNHLIVARQSLSSVTVTKLTRQIFAARQQIAREMPLAGKIEAPDTEKDAALPAHRGAAAFIDGTDRTFMERNSDYIWGLVLLLSGLGSAGAWFRSYLTRDEREAGAKMRDRALAMVAKARKAETLEALDALQHEIDKILRDTLDCYDDGAIEDLEPFSLVLEQFHHAVMDRRAALSASGPGLIPVDPATLPAAHA | failed |
| MASPNTTQPEIILSEEKKASLTTQSTSNNTNDGNILEEQKTLTSQQQPTPVPNTERTEDNVIENLKKTDLSNKDENTTISINTSTNTNINSNTNSNTNTNINSNINTDVNTNINTDINTNTNSNTNSNTNTNINTNANTNTNTNEKAQDEKFQYNGDVSKAFLSPPVFHLTEIMHDERCFKKTKGHVTVEINGDICIYGGMLHDKCVENFIRYVPGINLFEKMRLNSNDIVPRAFCSGNVITEDNKKNIIIFGGINEKDEIVDETYKFDFQAKKWELIGNKICPRARYKHASFSFNDFLYIHGGLDVNNSLLADMWCFSKNSWTPIKQIDRIPEPRYAHSLIFSFYGNAKLVFLFGGNKKGYNAALGDTWIFNINTNRWKEITNSSGSKPCARWGHSSQLFDNEWMIIYGGITNGWIDNYALSDMYALNIFTFSWFEVDISTSKNFDRGYYGSLCFLPYKKSLFVFGGTDNSEDHSDVFSMSPLVTYVSYKTLTGKIEQLNTRMKNINETSSENENMNISEFETKITELKEDINKINFMMKDFESKFCGKIKKLEKLNEQCEKLLSKNINTEELQNLEQRIRKLETSNVLMKHDSI | failed |
| MASRGLDLWLDEHVWKRKQEIGVKGENLLLPDLWLDFLQLSPIFQRKLAAVIACVRRLRTQATVYPEEDMCMAWARFCDPSDIKVVILGQDPYHGGQANGLAFSVAYGFPVPPSLRNIYAELHRSLPEFSPPDHGCLDAWASQGVLLLNTILTVQKGKPGSHADIGWAWFTDHVISLLSERLKACVFMLWGAKAGDKASLINSKKHLVLTSQHPSPLAQNSTRKSAQQKFLGNNHFVLANNFLREKGLGEIDWRL | not failed |
| MASRIIFLFSLLIMLGLATGLRGFSALLGFLAFLLLLIIVCQQYRRFLLLFLAILLFLCAWLYGVVQERQNETQLYPLVQSVEGTLISDPELDGDQFSATVKTTDGEKVLIRGRVQAEAEKDKLEMTQIGMVCSFVGQLEIPSEPTNPYQFNYRQFLDNNRIHWIFRTDLTQWQCSDQPTTLFMKVKRWRSEQLQDIYDLASDETAGLIAAFVYGDRSELDGELLSAYQSLGVIHLLAVSGLHVGLVVAAVFYLFIRLGVTRERAYELLLLFLPFYAIVAGAAPSVVRAVGMTMTVLLAFRFQKRLAPIIVLSLVAVIYIIIEPYAIFQLGFQLSFLTTCALLLSSSTLLQAINRPLLSLVKVTFLAQLISMPVILYHFFELPILSVPLNLLFVPVVSFVLLPLSFFVASSLLIHPGVAELPLFILEIIVPIVHQLLLVLNEQSFAAVVIGKPSLNSVFLMMISLIIGWAWLERKEPFKAWGAFSVVLFLIAWQIYSPYWSNEAIVTMIDVGQGDSFLIELPRRKAVYMIDTGGWVTYGEMEPWQERRNTRDIGEQVLTPILKGKGIRGIDKLILTHGHEDHFGGAEGLVRSIKVDEVVYGYKHAEYTEREMEVLSALKKAGASIRFVKSGDQWVIGSSSFRVLSPFGDEEELNDQSVVVYAVIEGVRFLFTGDLEEVGEKRLLEGYGDLKADVLKVGHHGSATSTTDPFLEAVHPVVALISAGRNNLYGHPNQDVLAALEQHETFVLRTDLHGAVKLTIRDGGIYARVMTTD | failed |
| MASRLGKKRLFLVWSCLVSILPGMAQTEKLIDYVNPFVGTDGYGNVYPGAQIPFGGIQMSPDTDSKYYDAASGYKYNHSTLLGFSLTHLSGTGIPDLGDFLFIPGTGEMKLDPGTREEPEKGYRSRYSHEKEWASPNYYAVELSDYGVKAEMTSGVRSGMFRFTYPQSDKAFIMIDMNHTLWQSCEWANLRMENDSTITGYKLVKGWGPERHIYFTATFSKKLTGLRFMQNKKPVIYNTSRFRSSYEAWGKNLMACISFDTKAGEEVIVKTAISSVSTNGAKNNMAELAGLAFDELKAKGEALWEKELGKYTLTADRKTKRTFYTSAYHAALHPFIFQDVDGQFRGLDKNIEKAEGFTNYTVFSLWDTYRALHPWFNLVQQEVNADIANSMLAHYDKSVEKMLPVWSFYGNETWCMIGYHAVSVLADMIVKGVKGFDYERAYEAMKTTAMNPNYDCLPEYRMMGYVPFDKEAESVSKTLEYAYDDYCMAQAAKALGKEDDYRYFLNRALSYQTLIDPETKYMRGKDSQGNWRTPFTPVAYQGPGSVNGWGDITEGFTVQYTWYVPQDVQGYINEAGENWFRNRLDELFTVELPDDIPGAHDIQGRIGAYWHGNEPCHHVAYLYNYLKEPWKCQKWVRTIADRFYGDTPDALSGNDDCGQMSAWYMFNCIGFYPVAPSSNMYNIGSPCVEAITVRMSNGKVIEMVADNWSPKNVYVKELYVNGKKYDKSYLKYEDIRDGVKLRFVMSSKPNYKRAVSDEAVAPSLSLPGKTMKYQANFSEKKKSGNPVFKGWYADPEGVVFGDEYWIYPTYSAPYDEQTFMDAFSSKDLVNWTKHPKVISKENISWLRRALWAPAVLSANDKYYLFFGANDIQNNNEVGGIGVATSDSPAGPFKDALGKPLIDKIVHGAQPIDQFVFKDDDGQYYMYYGGWGHCNMVKMAPDLLSIVPFEDGTMYKEVTPENYVEGPFMLKRNGKYYFMWSEGGWGLPNYSVAYSISDSPFGPFKRVGKILEQDLSVATGAGHHSVIKGAGEDEWYIVYHRRPLGETAANSRATCIDRMYFDENGYIKPVKMTFEGVLPSPLDSTK | failed |
| MASSDRGTSTLQGWHALQTLWRGDQRSVIQGLPHSQLAPAWQLLLLGDGSPTRHLQLLTGEPTAVDVIEMAPIADQDDGAPPPIRAIAGPRLRRQVWLRTASGQRLAYATSWWTQQRVDAYLRDRAQPIWANLADLRTELYRDIQGVEYGDSAALSEAFGQTGPFWGRYYLFWHQGQPLTLIYEVFSPAIATYLGPSTPQPVV | failed |
